Patent US20130136748A1 (Ablynx, published 2013)
Where two headings read alike, the source gives them in different places. One block for each molecule: values may come before it.

Key:
hHER3 full length [1] = target: T1, hHER3 full length (human, UniProt P21860 20-1342); assay: FACS competition with HRG1-β1-EGF, CHO-HER3
[2] = target: T2, human HER3-Fc (R&D Systems, 348-RB) (human, UniProt P21860 20-643); assay: SPR, HER3-Fc captured by anti-Fc
T2 construct: Bought; also called hHER3-Fc; Fc-HER3; Fc part of the bought chimera not given, not described

hHER3 full length [3] = target: T1, hHER3 full length; assay: cell-based or functional assay
[4] = target: T2, human HER3-Fc (R&D Systems, 348-RB); assay: HRG competition alphascreen
hHER3 full length [5] = target: T1, hHER3 full length; assay: cell-based or functional assay; remark: listed apart in the source
[6] = target: T3, hHER3 ECD (human HER3 extracellular domain) (human, UniProt P21860 20-643); assay: SPR off rate on HER3-ECD, periplasmic extract
T3 construct: also called recombinant HER3-ECD

[7] = target: T2, human HER3-Fc (R&D Systems, 348-RB); assay: 18G11 competition alphascreen, periplasmic extract
hHER3 full length [8] = target: T1, hHER3 full length; assay: cell-based or functional assay; remark: listed apart in the source
hHER3 full length [9] = target: T1, hHER3 full length; assay: cell-based or functional assay; remark: listed apart in the source
[10] = target: T3, hHER3 ECD (human HER3 extracellular …); assay: ELISA, coated hHER3-ECD
[11] = target: T4, cHER3ECD (Maccaca fascicularis HER3 extracellular domain) (Macaca fascicularis, UniProt P21860 20-643 (human entry)); assay: ELISA, coated cHER3-ECD
T4 construct: also called cyno HER3ECD; cyno HER3-ECD
T4 chain: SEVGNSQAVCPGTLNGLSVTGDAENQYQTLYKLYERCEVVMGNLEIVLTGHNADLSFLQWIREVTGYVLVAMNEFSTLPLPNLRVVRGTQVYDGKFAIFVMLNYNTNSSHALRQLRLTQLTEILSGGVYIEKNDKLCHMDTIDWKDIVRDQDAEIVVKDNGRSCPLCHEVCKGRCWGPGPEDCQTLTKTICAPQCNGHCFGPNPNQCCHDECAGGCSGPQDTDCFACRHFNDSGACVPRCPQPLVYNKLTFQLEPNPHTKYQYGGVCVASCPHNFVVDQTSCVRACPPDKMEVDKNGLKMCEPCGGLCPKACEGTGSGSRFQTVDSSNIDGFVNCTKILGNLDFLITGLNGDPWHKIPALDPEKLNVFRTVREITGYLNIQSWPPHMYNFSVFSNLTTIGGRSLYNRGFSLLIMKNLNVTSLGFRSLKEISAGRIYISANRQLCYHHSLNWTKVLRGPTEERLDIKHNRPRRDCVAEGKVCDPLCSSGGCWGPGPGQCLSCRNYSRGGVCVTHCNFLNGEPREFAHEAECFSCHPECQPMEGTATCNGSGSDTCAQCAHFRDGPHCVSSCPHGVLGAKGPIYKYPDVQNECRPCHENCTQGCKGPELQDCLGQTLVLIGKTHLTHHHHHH

hHER3 full length [12] = target: T1, hHER3 full length; assay: FACS, 400 nM, competitor 04C07-biotin
hHER3 full length [13] = target: T1, hHER3 full length; assay: FACS, 400 nM, competitor 04F10-biotin
hHER3 full length [14] = target: T1, hHER3 full length; assay: FACS, 400 nM, competitor 17C08-biotin
hHER3 full length [15] = target: T1, hHER3 full length; assay: FACS, 400 nM, competitor 18E08-biotin
hHER3 full length [16] = target: T1, hHER3 full length; assay: FACS, 400 nM, competitor 21B02-biotin
hHER3 full length [17] = target: T1, hHER3 full length; assay: FACS, 400 nM, competitor 23F05-biotin
[18] = target: T2, human HER3-Fc (R&D Systems, 348-RB); assay: HRG competition alphascreen; remark: listed apart in the source

Molecule: Control Fab1
- Kd [2]: 0.57 nM
- kon [2]: 703000 M⁻¹ s⁻¹

B1: HER3MS00129 (VHH)
VHH: EVQLVESGGGLVQPGGSLRLSCAASGFTFSSYPMSWVRQAPGKGPEWVSTVSPGGITTSYADSVKGRFTISRDNSKNTLYLQMNSLRPEDTAVYYCLRDLGNRGQGTLVTVSS
notes: 04C07 basic + A46E + N101G
- IC50 pHER3, HRG1-β1 stimulated MCF7 (hHER3 full length [3]): 1.21e-07 M
- IC50 [4]: 5.1 nM

B7: HER3MS00069 (VHH)
VHH: EVQLVESGGGLVQPGGSLRLSCAASGTLFKINAMGWYRQAPGKRRELVALITSSDTTDYAESVEGRFTISRDNTWNAVYLQMNSLKPEDTAVYYCHSDHYSLGVPEKRVIMYGQGTLVTVSS
notes: 18G11 M99L
- IC50 pHER3 blocking, HRG stimulated MCF7 (hHER3 full length [5]): 5.27e-08 M
- koff [6]: 0.00081 s⁻¹
- % inhibition [7]: 83%

B8: HER3MS00070 (VHH)
VHH: EVQLVESGGGLVQPGGSLRLSCAASGTLFKINAMGWYRQAPGKRRELVALITSSDTTDYAESVEGRFTISRDNTWNAVYLQMNSLKPEDTAVYYCHSDHYSIGVPEKRVIMYGQGTLVTVSS
notes: 18G11 M99I
- IC50 pHER3 blocking, HRG stimulated MCF7 (hHER3 full length [5]): 3.78e-08 M
- koff [6]: 0.00064 s⁻¹
- % inhibition [7]: 82.2%

B9: HER3MS00071 (VHH)
VHH: EVQLVESGGGLVQPGGSLRLSCAASGTLFKINAMGWYRQAPGKRRELVALITSSDTTDYAESVEGRFTISRDNTWNAVYLQMNSLKPEDTAVYYCHSDHYSVGVPEKRVIMYGQGTLVTVSS
notes: 18G11 M99V
- IC50 pHER3 blocking, HRG stimulated MCF7 (hHER3 full length [5]): 7.35e-08 M
- koff [6]: 0.00084 s⁻¹
- % inhibition [7]: 80.9%

B11: HER3MS00073 (VHH)
VHH: EVQLVESGGGLVQPGGSLRLSCAASGTLFKINAMGWYRQAPGKRRELVALITSSDTTDYAESVEGRFTISRDNTWNAVYLQMNSLKPEDTAVYYCHSDHYSMGVPEKRVIDYGQGTLVTVSS
notes: 18G11 M102D
- IC50 pHER3 blocking, HRG stimulated MCF7 (hHER3 full length [5]): 8.75e-08 M
- koff [6]: 0.00083 s⁻¹
- % inhibition [7]: 84.4%

B14: HER3MS00077 (VHH)
VHH: EVQLVESGGGLVQPGGSLRLSCAASGSIGGLNAMAWYRQAPGKERELVAGIFGVGSTRYADSVKGRFTISRDNSKNTVFLQMNSLRSEDTAVYYCRMSSVTRGSSDYWGQGTLVTVSS
notes: 17B05 basic + I73N; also called HER3MS0077
- IC50 [18]: 0.753 nM

B17: HER3MS00081 (VHH)
VHH: EVQLVESGGGLVQPGGSLRLSCAASGSIGGLNAMAWYRQAPGKERELVAGIFGVGSTRYADSVKGRFTISRDNSKNTVFLQMNSLRSEDTAVYYCAMSSVTRGSSDYWGQGTLVTVSS
notes: also called HER3MS0081
- IC50 [18]: 5.89 nM

B18: HER3MS00078 (VHH)
VHH: EVQLVESGGGLVQPGGSLRLSCAASGSIGGLNAMAWYRQAPGKERELVAGIFGVGSTRYADSVKGRFTISRDISKNTVYLQMNSLRSEDTAVYYCRMSSVTRGSSDYWGQGTLVTVSS
notes: 17B05 basic + F79Y; also called HER3MS0078
- IC50 [18]: 0.811 nM

The remaining lines, values ahead:

- IC50 (hHER3 full length [1]): 9.4 nM
Molecule: Control MAb1 (antibody)

- IC50 (hHER3 full length [1]): 67.2 nM
Molecule: Control MAb2 (antibody)

- Kd [2]: 2.77 nM
- kon [2]: 93400 M⁻¹ s⁻¹
Molecule: Control Fab2

- IC50 pHER3, HRG1-β1 stimulated MCF7 (hHER3 full length [3]): 2.26e-07 M
- IC50 [4]: 5.8 nM
B2: HER3MS00131 (VHH)
VHH: EVQLVESGGGLVQPGGSLRLSCAASGFTFSSYPMSWVRQAPGKGPEWVSTVSPGGITTSYADSVKGRFTISRDNSKNTLYLQMNSLRPEDTAVYYCLRDLSNRGQGTLVTVSS
notes: 04C07 basic + A46E + N101S

- IC50 pHER3, HRG1-β1 stimulated MCF7 (hHER3 full length [3]): 1.31e-08 M
- IC50 [4]: 1 nM
B3: HER3MS00132 (VHH)
VHH: EVQLVESGGGLVQPGGSLRLSCAASGFTFSSYPMSWVRQAPGKGPAWVSTVSPGGITTSYADSVKGRFTISRDNSKNTLYLQMNSLRPEDTAVYYCLRDLSNRGQGTLVTVSS
notes: 04C07 basic + N101S

- IC50 pHER3, HRG1-β1 stimulated MCF7 (hHER3 full length [3]): 9.38e-09 M
- IC50 [4]: 0.88 nM
B4: HER3MS00130 (VHH)
VHH: EVQLVESGGGLVQPGGSLRLSCAASGFTFSSYPMSWVRQAPGKGPAWVSTVSPGGITTSYADSVKGRFTISRDNSKNTLYLQMNSLRPEDTAVYYCLRDLGNRGQGTLVTVSS
notes: 04C07 basic + N101G

- IC50 pHER3 blocking, HRG stimulated MCF7 (hHER3 full length [5]): 8.88e-08 M
- koff [6]: 0.001 s⁻¹
- % inhibition [7]: 84.4%
B5: HER3MS00068 (VHH)
VHH: EVQLVESGGGLVQPGGSLRLSCAASGTLFKINAMGWYRQAPGKRRELVALITSSDTTDYAESVEGRFTISRDNTWNAVYLQMNSLKPEDTAVYYCHSDHYSGGVPEKRVIMYGQGTLVTVSS
notes: 18G11 M99G

- IC50 pHER3 blocking, HRG stimulated MCF7 (hHER3 full length [5]): 6.3e-08 M
- koff [6]: 0.00049 s⁻¹
- % inhibition [7]: 82.7%
B6: HER3MS00074 (VHH)
VHH: EVQLVESGGGLVQPGGSLRLSCAASGTLFKINAMGWYRQAPGKRRELVALITSSDTTDYAESVEGRFTISRDNTWNAVYLQMNSLKPEDTAVYYCHSDHYSMGVPEKRVIEYGQGTLVTVSS
notes: 18G11 M102E

- IC50 pHER3 blocking, HRG stimulated MCF7 (hHER3 full length [5]): 5.76e-08 M
- koff [6]: 0.00082 s⁻¹
- % inhibition [7]: 88%
B10: HER3MS00072 (VHH)
VHH: EVQLVESGGGLVQPGGSLRLSCAASGTLFKINAMGWYRQAPGKRRELVALITSSDTTDYAESVEGRFTISRDNTWNAVYLQMNSLKPEDTAVYYCHSDHYSMGVPEKRVILYGQGTLVTVSS
notes: 18G11 M102L

- IC50, HRG1-β1 induced pHER3, MCF-7 (hHER3 full length [8]): 3.02e-08 M
- IC50, HRG1-β1 induced pHER3, MDA-MB468 (hHER3 full length [8]): 2.2e-08 M
- IC50, HRG1-β1 induced pAkt, MCF-7 (hHER3 full length [9]): 6.26e-08 M
- IC50, HRG1-β1 induced pERK1/2, MCF-7 (hHER3 full length [9]): 3.13e-07 M
- EC50 [10]: 0.57 nM
- EC50 [11]: 0.49 nM
- Kd [2]: 2.7 nM
- kon [2]: 2.63e+06 M⁻¹ s⁻¹
- % competition (hHER3 full length [12]): 22%
- % competition (hHER3 full length [13]): 3%
- % competition (hHER3 full length [14]): 14%
- % competition (hHER3 full length [15]): 25%
- % competition (hHER3 full length [16]): 99%
- % competition (hHER3 full length [17]): 97%
B12: 34A04 (VHH)
VHH: EVQLVESGGGLVQAGGSLRLSCAASGFTFDDYTIGWFRQAPGKEREEISCISNNDGSTYYTNSVKGRFTISSDNAKNTVYLQMNSLKPEDTAVYYCAASPHGCWYDLIPLQADFGSWGQGTQVTVSS

- IC50, HRG1-β1 induced pHER3, MCF-7 (hHER3 full length [8]): 9.12e-08 M
- IC50, HRG1-β1 induced pHER3, MDA-MB468 (hHER3 full length [8]): 1.28e-07 M
- IC50, HRG1-β1 induced pAkt, MCF-7 (hHER3 full length [9]): 2.9e-07 M
- inhibition of HRG1-β1 induced pERK1/2, MCF-7 (hHER3 full length [9]): < 50 % inhibition
- EC50 [10]: 1.45 nM
- EC50 [11]: 1.3 nM
- % competition (hHER3 full length [12]): 0%
- % competition (hHER3 full length [13]): 0%
- % competition (hHER3 full length [14]): 48%
- % competition (hHER3 full length [15]): 78%
- % competition (hHER3 full length [16]): 22%
- % competition (hHER3 full length [17]): 10%
B13: 05A09 (VHH)
VHH: EVQLVESGGGLVQAGGSLRLSCAASGFTFDDYAIGWFRQAPGKEREGVSCISSSDGSTVYADSVKGRFTISSDNAKNTVYLQMNSLKPEDTAVYYCAAERRRGYSDLCRFYYGMDYWGKGTQVTVSS

- IC50 [18]: 4.05 nM
B15: HER3MS00082 (VHH)
VHH: EVQLVESGGGLVQPGGSLRLSCAASGSIGGLNAMAWYRQAPGKERELVAGIFGVGSTRYADSVKGRFTISRDISKNTVYLQMNSLRSEDTAVYYCAMSSVTRGSSDYWGQGTLVTVSS
notes: also called HER3MS0082

- IC50 [18]: 3.08 nM
B16: HER3MS00079 (VHH)
VHH: EVQLVESGGGLVQPGGSLRLSCAASGSIGGLNAMAWYRQAPGKERELVAGIFGVGSTRYADSVKGRFTISRDISKNTVFLQMNSLRSEDTAVYYCAMSSVTRGSSDYWGQGTLVTVSS
notes: also called HER3MS0079
